According to paper PMC3268818:

Target: BclXL_FL, full-length human BclXL (residues 1–233) (human), Q07817
Test: ITC

Sequence of BclXL_FL, full-length human BclXL (residues 1–233) (human), Q07817 (Q07817 whole entry, the tested form may be a part): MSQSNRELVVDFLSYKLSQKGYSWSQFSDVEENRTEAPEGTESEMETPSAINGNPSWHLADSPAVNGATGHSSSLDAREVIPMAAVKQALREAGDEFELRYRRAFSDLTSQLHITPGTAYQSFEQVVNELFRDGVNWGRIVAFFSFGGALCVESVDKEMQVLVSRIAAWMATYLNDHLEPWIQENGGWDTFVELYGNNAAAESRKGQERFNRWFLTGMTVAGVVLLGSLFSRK

- Kd: 9.97 µM
- dH: -18.7 kcal/mol
B1: Bid_BH3 peptide (20-mer spanning the BH3 domain of human Bid) (peptide)
chain: DIIRNIARHLAQVGDSMDRS
modifications: not checked
